How the values were obtained:
[1] = tested on: VP35 IID (Zaire ebolavirus); experiment: ITC; conditions: not given in the material (Methods absent)
[2] = tested on: VP35 IID (Zaire ebolavirus); experiment: NMR competition; conditions: 5'ppp; not given in the material (Methods absent)
[3] = tested on: VP35 IID (Zaire ebolavirus); experiment: NMR; conditions: 5'ppp; not given in the material (Methods absent)

Substance | Kd [1] [nM] | binding signal (relative HSQC peak intensity) [2] | binding signal (relative HSQC peak intensity) [3]
8 bp dsRNA | 500 | – | –
IVT-8 bp dsRNA | – | 0.42 | 0.36
